Reference: US20070065439A1 (Amgen, published 2007)

B1: 9.54.1 (antibody, human IgG4, V domains shown)
VH: QVQLVESGGGVVQPGRSLRLSCAASGFTFSSFGMHWVRQAPGKGLEWVAVIWYDGSNKYYADSVKGRFTISRDNSKNTLYLQMNSLRAEDTAVYYCARDPNYDILTGYYYYGMDVWGQGTTVTVS
VL: SSELTQDPAVSVALGQTVRITCQGDILRTYYASWYQQKPGQAPVLVIYGKNDRPSGIPDRFSGSSSGNTASLTITGAQAEDEADYYCDSRDNTVTHLVFGGGTKLTVL
notes: lambda; also called 9.54.2
B2: 9.5.2 IgG2 (antibody, V domains shown)
VH: EVQLVESGGGLVKPGRSLRLSCTGSGFTFGDYALNWFRQAPGMGLEWVGFIRGKAYGGTTEYAASVKGRFTISRDDSKSIAYLQMNSLKTEDTAVYYCNREVEYCRSSENYCYGMDVWGQGTTVTVS
VL: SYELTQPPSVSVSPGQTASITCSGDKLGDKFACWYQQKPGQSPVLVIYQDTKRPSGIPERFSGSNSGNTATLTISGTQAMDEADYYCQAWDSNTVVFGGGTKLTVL
notes: also called mAb 9.5.2 (IgG2 isotype); 9.5.2 IgG2λ
B3: 9.5.2 IgG1 (antibody, V domains shown)
VH: B2 VH
VL: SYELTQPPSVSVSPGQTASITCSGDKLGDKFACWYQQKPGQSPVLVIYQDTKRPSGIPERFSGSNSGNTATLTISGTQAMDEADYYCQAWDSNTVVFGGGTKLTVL
B4: 9.5.2 IgG4 (antibody, V domains shown)
VH: B2 VH
VL: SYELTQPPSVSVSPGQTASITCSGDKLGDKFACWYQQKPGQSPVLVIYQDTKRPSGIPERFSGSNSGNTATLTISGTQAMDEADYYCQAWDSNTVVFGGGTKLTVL
notes: also called mAb 9.5.2; mAb 9.5.2 (IgG4 isotype)
B5: 5.5.1 (antibody, IgG4, V domains shown)
VH: QVQLVESGGGVVQPGRSLRLSCAASGFTFSSYGMHWVRQAPGKGLEWVAVIWYDGDNKYYADSVQGRFTISRDNSKNTLYLQMNSLRPEDTAVYYCARERSSSWYFDYWGQGTLVTVSS
VL: QSALTQPASVSGSPGQSITISCTGTSSDVGSYNLVSWYQQHPGKAPKLMIYEVSKRPSGISNRFSGSKSGNTASLTISGLQAEDEADYYCCSYAGSSTWVFGGGTKLTVL
notes: lambda; also called mAb 5.5.1; Ab 5.5.1

Tests used:
[1] = target: T1, Recombinant human IL-1beta (rhIL-1b) (human, UniProt P01584 117-269); assay: cell-based or functional assay
IL-1β H30A mutant [2] = target: T2, IL-1β H30A mutant (human, UniProt P01584 117-269); assay: binding to site-directed IL-1β mutant; X = abrogation of binding
T2 construct: site-directed mutant

IL-1β R11A mutant [3] = target: T3, IL-1β R11A mutant (human, UniProt P01584 117-269); assay: as above
T3 construct: site-directed mutant

[4] = target: T1, Recombinant human IL-1beta (rhIL-1b); assay: Biacore, Low Resolution screen
[5] = target: T1, Recombinant human IL-1beta (rhIL-1b); assay: cell-based or functional assay; remark: listed apart in the source
[6] = target: T1, Recombinant human IL-1beta (rhIL-1b); assay: Biacore, Medium Resolution; IL-1β in solution; medium-resolution Biacore
[7] = target: T1, Recombinant human IL-1beta (rhIL-1b); assay: Biacore low-res, mAb captured, 25C; IL-1β in solution (118 nM) over captured mAb; low-resolution Biacore, 25 C
[8] = target: T1, Recombinant human IL-1beta (rhIL-1b); assay: KinExA, single KD-controlled titration
[9] = target: T1, Recombinant human IL-1beta (rhIL-1b); assay: KinExA, triple curve analysis
[10] = target: T1, Recombinant human IL-1beta (rhIL-1b); assay: cell-based or functional assay; remark: listed apart in the source
[11] = target: T1, Recombinant human IL-1beta (rhIL-1b); assay: cell-based or functional assay; remark: listed apart in the source
[12] = target: T1, Recombinant human IL-1beta (rhIL-1b); assay: KinExA direct kinetic method
[13] = target: T1, Recombinant human IL-1beta (rhIL-1b); assay: Biacore, Medium Resolution; complex kinetics; IL-1β in solution; medium-resolution Biacore; complex kinetics
[14] = target: T1, Recombinant human IL-1beta (rhIL-1b); assay: Biacore low-res, mAb captured, 25C; poor fit to 1:1 model; IL-1β in solution (118 nM) over captured mAb; low-resolution Biacore, 25 C; poor fit to 1:1 model
IL-1β R4A mutant = target: T4, IL-1β R4A mutant (human, UniProt P01584 117-269); assay: binding to site-directed IL-1β mutant; X = abrogation of binding
T4 construct: site-directed mutant

[15] = target: T1, Recombinant human IL-1beta (rhIL-1b); assay: calculated as kon x KD from KinExA
[16] = target: T1, Recombinant human IL-1beta (rhIL-1b); assay: Biacore low-res, mAb captured, 25C; IL-1β in solution (118 nM) over captured mAb; low-resolution Biacore, 25 C; poor fit to 1:1 model
IL-1β H30A mutant [17] = target: T2, IL-1β H30A mutant; assay: binding to site-directed IL-1β mutants
IL-1β R11A mutant [18] = target: T3, IL-1β R11A mutant; assay: binding to site-directed IL-1β mutants
[19] = target: T1, Recombinant human IL-1beta (rhIL-1b); assay: Biacore high-res, mAb amine-coupled, 23C, long association and dissociation, IL-1β 55 pM
[20] = target: T1, Recombinant human IL-1beta (rhIL-1b); assay: Biacore, Medium Resolution; IL-1β in solution; medium-resolution Biacore; complex kinetics
[21] = target: T1, Recombinant human IL-1beta (rhIL-1b); assay: Biacore, Low Resolution screen; complex kinetics
[22] = target: T1, Recombinant human IL-1beta (rhIL-1b); assay: Biacore high-res, mAb amine-coupled, 23C
[23] = target: T1, Recombinant human IL-1beta (rhIL-1b); assay: KinExA, dual curve analysis

Binder | EC50, inhibition of IL-1β-induced IL-6 production in MRC-5 cells [1] [pM] | binding result (IL-1β R11A mutant [3]) | Kd [4] [pM] | % IL-6 production, supernatant 1:5 dilut. [5] [%] | % IL-6 production, supernatant 1:10 dilut. [5] [%] | % IL-6 production, supernatant 1:20 dilut. [5] [%] | Kd [6] [pM] | koff [6] [s⁻¹] | kon [6] [M⁻¹ s⁻¹] | Kd [7] [pM] | koff [7] [s⁻¹] | kon [7] [M⁻¹ s⁻¹] | Kd [8] [pM] | Kd [9] [pM] | In Vivo Potency EC50, inhibition of IL-6 induced in mice by human IL-1β [10] [pmoles/mouse] | EC50, inhibition of IL-1β-induced IL-8 production in human whole blood [11] [pM] | binding result (IL-1β R4A mutant) | binding result (IL-1β H30A mutant [17]) | other results
B1 | 11600 | no binding | 370 | 5 | 21 | 36 | 140 | 0.00035 | 2.5e+06 | 370 | 0.00085 | 2.3e+06 | – | – | – | – | – | – | binding result (IL-1β H30A mutant [2]): no binding
B2 | 4 | – | – | – | – | – | – | – | – | – | – | – | 0.041 | 0.204 | 8 | 69 | – | – | –
B3 | 1 | – | – | – | – | – | – | – | – | – | – | – | – | – | 5 | 106 | – | – | –
B4 | 4 | – | – | 0 | 0 | 0 | – | – | – | – | – | – | 0.04 | 0.181 | 5 | 135 | no binding | binds | kon [12]: 3.4e+06 M⁻¹ s⁻¹; Kd [13]: 130 pM; Kd [14]: 1640 pM; koff [15]: 6.1e-07 s⁻¹; koff [16]: 0.0018 s⁻¹; kon [16]: 1.1e+06 M⁻¹ s⁻¹; binding result (IL-1β R11A mutant [18]): binds; Kd [19]: 1.5 pM; koff [19]: 1.1e-06 s⁻¹; kon [19]: 710000 M⁻¹ s⁻¹; koff [20]: 0.00035 s⁻¹; kon [20]: 2.6e+06 M⁻¹ s⁻¹; Kd [21]: 1640 pM
B5 | 216 | no binding | 278 | 1 | 3 | 6 | 180 | 0.00057 | 3.1e+06 | 278 | 0.0005 | 1.8e+06 | 19 | – | 51 | 1670 | no binding | binds | Kd [22]: 44.7 pM; koff [22]: 0.000704 s⁻¹; kon [22]: 1.57e+07 M⁻¹ s⁻¹; Kd [23]: 20 pM
